The record followed here is patent publication US20130316929A1 (Daiichi Sankyo, published 2013).

Assay [1] addresses T1, Recombinant Human EGF R/Fc Chimera, CF (human, UniProt P00533 25-645; P01857 100-330 = IgG part).
T1 construct: range 25-645;range 100-330; R&D systems product; also called hEGFR/Fc
The experiment in a line: phage panning and phage ELISA on hEGFR/Fc (TACI_d2 mutant binding to the extracellular domain of human EGFR).

Assay [2] concerns the target T2, Recombinant Human EphA2, CF (human, UniProt P29317 25-534).
T2 construct: Bought recombinant protein; also called hEphA2; recombinant hEphA2
The experiment in a line: phage ELISA, hEphA2 immobilized on a Maxisorp plate, two-fold dilutions of phage stock, anti-M13-HRP, OD405 nm [A) (1]. As to the method: (§1) As to 3 clones (α-EphA2 #1 to #3: corresponding to SEQ ID NOs: 3 to 5, respectively, in the Sequence Listing and to Nos. 2 to 4, respectively in FIG. 4) selected from the Escherichia coli colonies after the final round of panning with hEphA2 as a target molecule, an Escherichia coli suspension with OD_{600 nm}=0.3 was prepared using 2×YT/Amp/1% Glu. The Escherichia coli cells of each clone were shake-cultured at 37° C. and allowed to grow until OD_{600 nm}=0.5. A sufficient amount of helper phages M13K07 was added thereto to infect the cells at 37° C. for 30 minutes. After addition of 2×YT/Amp/Kan/0.25 mM IPTG, the helper phage-infected Escherichia coli was shake-cultured overnight at 22° C. 20% PEG/2.5 M NaCl solution was added to the recovered culture supernatant to precipitate phages. The precipitated phages were suspended in PBS. This phage stock solution and a series of two-fold dilutions with PBS were used in phage ELISA. An Escherichia coli TG-1 strain having a pCANTAB 5E vector containing the wild-type TACI_d2 gene was also subjected to the same operation as above to prepare phages.
TACI_d2 mutant-displaying phages were added to these Maxisorp plates and reacted for 2 hours. Each Maxisorp plate was washed with TBST. Then, an Anti-M13 antibody diluted 5000-fold was added thereto. After washing of the Maxisorp plate with TBST again, the amount of a phage bound with the protein solid-phase immobilized on the plate was detected as absorbance at a wavelength of 405 nm using ELISA POD.

Assay [3] addresses T3, human EphA2 expressed on cell surface (human, UniProt P29317 24-976).
T3 construct: whole, on cells; also called human EphA2-expressing cells
Description: flow cytometry, phage stock on transfected HEK293T cells, anti-M13 antibody and fluorescein anti-mouse IgG, FL1 [A) (1]. The protocol:
as §1, with “The” for “As to 3 clones (α-EphA2 #1 to #3: corresponding to SEQ ID NOs: 3 to 5, respectively, in the Sequence Listing and to Nos. 2 to 4, respectively in FIG. 4) selected from the Escherichia coli colonies after the final round of panning with hEphA2 as a target molecule, an Escherichia coli suspension with OD_{600 nm}=0.3 was prepared using 2×YT/Amp/1% Glu. The”
(§2) The transfected cells were recovered. The recovered cells were suspended in a FACS buffer (PBS containing 5% FBS) and applied to a nylon mesh. The solution was dispensed in an amount of 5×10⁵ cells/well to 96 Well Cell Culture Cluster Round Bottom With Lid (manufactured by Costar, Corning Inc.) and centrifuged to remove a supernatant. The phage stock solution prepared in the paragraph 1) of Example 4 was added to the resulting cells at a concentration of 50 μL/well, and the mixture was left standing at 4° C. for 30 minutes. […] Fluorescently stained cells were detected.

The next assay addresses T4, Recombinant Human TNF-α (human, UniProt P01375 77-233).
T4 construct: also called hTNF-α
Description: phage panning and phage ELISA on hTNF-α.

Assay [4] has as its target T5, Recombinant Human VEGF165 (human, UniProt P15692-4 27-191).
T5 construct: Isoform VEGF165; also called hVEGF
Description: phage panning and phage ELISA on hVEGF.

For assay [5], the target named is T6, IgG-Free, Protease-Free Bovine Serum Albumin (bovine, UniProt P02769 25-607).
T6 construct: also called BSA
The experiment in a line: phage ELISA, BSA immobilized on a Maxisorp plate, two-fold dilutions of phage stock, anti-M13-HRP, OD405 nm [A) (2]. The protocol:
as §1
TACI_d2 mutant-displaying phages were added to these Maxisorp plates and reacted for 2 hours. […] After washing of the Maxisorp plate with TBST again, the amount of a phage bound with the protein solid-phase immobilized on the plate was detected as absorbance at a wavelength of 405 nm using ELISA POD.

Assay [6] deals with T3, human EphA2 expressed on cell surface. Description: flow cytometry, phage stock on transfected HEK293T cells, anti-M13 antibody and fluorescein anti-mouse IgG, FL1 [B) (4]. As to the method:
as §1, with “The” for “As to 3 clones (α-EphA2 #1 to #3: corresponding to SEQ ID NOs: 3 to 5, respectively, in the Sequence Listing and to Nos. 2 to 4, respectively in FIG. 4) selected from the Escherichia coli colonies after the final round of panning with hEphA2 as a target molecule, an Escherichia coli suspension with OD_{600 nm}=0.3 was prepared using 2×YT/Amp/1% Glu. The”
as §2

In assay [7] the target is T5, Recombinant Human VEGF165. The experiment in a line: SPR, Biacore 3000, hVEGF immobilized on sensor chip, mutant applied at various concentrations. From the text:
Examples of the determination-calculation system of surface plasmon resonance can include, but not limited to, Biacore system (GE Healthcare Japan Corp.). Procedures for the method using Biacore system are as follows: target molecules are immobilized onto a sensor chip of Biacore system by amine coupling; the target molecules are contacted with peptides at a plurality of peptide concentrations; the interaction therebetween is detected by surface plasmon resonance; a series of association and dissociation reactions is drawn in a sensorgram with time as the abscissa against the amount of binding (RU) as the ordinate; the sensorgram drawn at the plurality of peptide concentrations is fit to a 1:1 Langmuir model using BIAevaluation software (manufactured by GE Healthcare Japan Corp.) to calculate various rate parameters; and the dissociation constant is calculated from various rate parameters thus calculated.
The gene of the hVEGF-binding TACI_d2 mutant (No. 9 in FIG. 4: SEQ ID NO: 10 in the Sequence Listing) obtained in Example 2 was amplified by PCR and inserted to a vector pET-32a for expression in Escherichia coli (Novagen, Merck KGaA). […] The affinity of the mutant was determined by a surface plasmon resonance method using Biacore 3000 (GE Healthcare Japan Corp.). […] The dissociation constant of the mutant for hVEGF was determined from the obtained sensorgram.

Assay [8] deals with T3, human EphA2 expressed on cell surface. The experiment in a line: flow cytometry, phage stock on transfected HEK293T cells, anti-M13 antibody and fluorescein anti-mouse IgG, FL1 [A) (2]. As to the method: as §1, with “The” for “As to 3 clones (α-EphA2 #1 to #3: corresponding to SEQ ID NOs: 3 to 5, respectively, in the Sequence Listing and to Nos. 2 to 4, respectively in FIG. 4) selected from the Escherichia coli colonies after the final round of panning with hEphA2 as a target molecule, an Escherichia coli suspension with OD_{600 nm}=0.3 was prepared using 2×YT/Amp/1% Glu. The”
as §2

T4 sequence (P01375 77-233 limits assumed): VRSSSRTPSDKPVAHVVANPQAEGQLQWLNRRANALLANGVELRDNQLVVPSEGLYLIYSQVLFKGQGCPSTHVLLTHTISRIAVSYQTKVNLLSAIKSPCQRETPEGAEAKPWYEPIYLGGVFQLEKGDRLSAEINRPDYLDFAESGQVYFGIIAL
T3 sequence (P29317 24-976): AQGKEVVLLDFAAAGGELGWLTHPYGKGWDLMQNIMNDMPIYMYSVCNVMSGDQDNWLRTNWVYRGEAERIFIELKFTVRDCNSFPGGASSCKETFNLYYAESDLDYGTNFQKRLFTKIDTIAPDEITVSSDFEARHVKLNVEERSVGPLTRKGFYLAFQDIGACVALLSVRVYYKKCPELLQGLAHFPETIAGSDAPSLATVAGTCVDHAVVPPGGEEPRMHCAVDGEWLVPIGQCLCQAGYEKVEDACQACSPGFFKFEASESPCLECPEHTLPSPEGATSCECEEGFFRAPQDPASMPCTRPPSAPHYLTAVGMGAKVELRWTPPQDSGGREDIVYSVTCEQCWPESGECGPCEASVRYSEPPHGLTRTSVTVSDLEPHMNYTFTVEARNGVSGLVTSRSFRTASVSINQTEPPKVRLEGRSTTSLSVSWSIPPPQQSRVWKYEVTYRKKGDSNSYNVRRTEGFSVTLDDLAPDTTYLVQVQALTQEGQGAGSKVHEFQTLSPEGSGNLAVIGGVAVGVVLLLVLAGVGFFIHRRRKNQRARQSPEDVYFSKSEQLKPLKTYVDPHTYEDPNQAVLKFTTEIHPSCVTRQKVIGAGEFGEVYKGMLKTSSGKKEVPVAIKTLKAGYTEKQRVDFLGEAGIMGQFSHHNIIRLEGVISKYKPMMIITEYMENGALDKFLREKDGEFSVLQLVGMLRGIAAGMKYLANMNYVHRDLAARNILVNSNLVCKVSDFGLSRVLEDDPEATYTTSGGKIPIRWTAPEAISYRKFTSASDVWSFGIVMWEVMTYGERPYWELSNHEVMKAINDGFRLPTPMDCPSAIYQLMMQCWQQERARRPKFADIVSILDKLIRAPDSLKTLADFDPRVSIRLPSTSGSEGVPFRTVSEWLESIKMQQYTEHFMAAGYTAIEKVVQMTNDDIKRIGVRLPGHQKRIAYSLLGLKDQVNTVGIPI
T2 sequence (P29317 25-534 limits assumed): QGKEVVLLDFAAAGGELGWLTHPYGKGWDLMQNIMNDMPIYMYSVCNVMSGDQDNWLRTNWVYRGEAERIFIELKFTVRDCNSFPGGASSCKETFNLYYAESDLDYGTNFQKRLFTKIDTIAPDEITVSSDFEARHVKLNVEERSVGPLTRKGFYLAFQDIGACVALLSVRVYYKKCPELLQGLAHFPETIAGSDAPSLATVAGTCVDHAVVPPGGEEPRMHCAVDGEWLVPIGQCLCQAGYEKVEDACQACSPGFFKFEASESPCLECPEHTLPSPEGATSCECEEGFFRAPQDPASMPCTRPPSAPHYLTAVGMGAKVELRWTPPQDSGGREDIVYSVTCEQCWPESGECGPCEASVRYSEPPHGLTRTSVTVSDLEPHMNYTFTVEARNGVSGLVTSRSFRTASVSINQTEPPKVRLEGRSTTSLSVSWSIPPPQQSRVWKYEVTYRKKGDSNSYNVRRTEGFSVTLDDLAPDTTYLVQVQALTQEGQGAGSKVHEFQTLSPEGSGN
T5 sequence (P15692 other isoform, or with tags, fused parts or gaps limits assumed): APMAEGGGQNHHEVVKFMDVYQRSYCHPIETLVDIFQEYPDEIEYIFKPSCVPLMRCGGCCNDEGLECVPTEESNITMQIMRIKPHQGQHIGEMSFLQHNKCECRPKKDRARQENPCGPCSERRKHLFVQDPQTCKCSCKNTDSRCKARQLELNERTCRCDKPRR
T6 sequence (P02769 25-607 limits assumed): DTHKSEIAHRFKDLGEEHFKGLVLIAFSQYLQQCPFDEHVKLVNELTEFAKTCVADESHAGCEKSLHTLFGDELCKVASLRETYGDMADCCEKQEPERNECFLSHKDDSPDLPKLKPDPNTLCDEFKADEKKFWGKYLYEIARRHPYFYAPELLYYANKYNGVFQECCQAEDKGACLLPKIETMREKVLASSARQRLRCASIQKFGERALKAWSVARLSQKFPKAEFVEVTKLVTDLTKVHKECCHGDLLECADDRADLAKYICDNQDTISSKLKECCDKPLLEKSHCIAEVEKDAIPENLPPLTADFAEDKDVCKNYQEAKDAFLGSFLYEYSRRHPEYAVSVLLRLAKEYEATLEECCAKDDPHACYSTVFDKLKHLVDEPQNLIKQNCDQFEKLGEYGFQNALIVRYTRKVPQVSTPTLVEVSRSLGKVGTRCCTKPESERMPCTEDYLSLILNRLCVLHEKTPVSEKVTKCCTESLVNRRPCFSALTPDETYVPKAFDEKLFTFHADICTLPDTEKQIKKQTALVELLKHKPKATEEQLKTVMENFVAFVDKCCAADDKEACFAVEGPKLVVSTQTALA

On to SLSCRKEQGKNYIHQQWDCASCASECGGHPNYCAYFCEN (designed binder) [human EGFR-binding peptide (3)], for which the binding result in assay [1] is “binds”.

Consider SLSCRKEQGKQYLLREWDCDSCASECGSHPHYCAYFCEN (designed binder, also called α-EphA2 #1) [α-EphA2 TACI_d2 #1], for which the binding result in assay [2] and in assay [3] was “binds” in each case.

For the molecule SLSCRKEQGKQYMAGHFDCNSCASRYGHHPLMCAYFCEN (designed binder) [human TNFα-binding peptide (1)], in the assay with Recombinant Human TNF-α, the binding result is “binds”.

In the case of SLSCRKEQGKHYLLKEYDCDSCASECGYHPDYCAYFCEN (designed binder, also called α-EphA2 #3) [α-EphA2 TACI_d2 #3], the binding result in assay [2] was “binds”.

As for SLSCRKEQGKIYNQYGFDCKSCASWCGKHPDMCAYFCEN (designed binder) [human VEGF-binding peptide (4)], the binding result in assay [4] is on record as “binds”.

Regarding SLSCRKEQGKFYDHLLRDCISCASICGQHPKQCAYFCENKLR (receptor, UniProt O14836 68-109, looked up, also called WT) [wild-type TACI_d2], the binding result in [5], in assay [2] and in assay [6] was “no binding” in each case.

Turning to SLSCRKEQGKEYGAIAWDCSSCASYCGAHPFECAYFCEN (designed binder) [human EGFR-binding peptide (2)], in assay [1], the binding result is recorded as “binds”.

In the case of SLSCRKEQGKSYTSEWFDCASCASKYGKHPLVCAYFCEN (designed binder) [human TNFα-binding peptide (3)], the binding result with Recombinant Human TNF-α is recorded as “binds”.

Consider SLSCRKEQGKDYMVFGQDCHSCASWCGKHPVACAYFCEN (designed binder) [human VEGF-binding peptide (6)], for which the binding result in [4] is given as “binds”.

SLSCRKEQGKIYMTWHDDCHSCASLCGSHPLFCAYFCEN (designed binder) [human VEGF-binding peptide (5)]: the binding result in assay [4] is “binds”.

B1: hVEGF-binding TACI_d2 mutant (No. 9 in FIG. 4), purified monomer (designed binder)
chain: SLSCRKEQGKMYDLYGFDCRSCASMCGKHPDLCAYFCEN
notes: Expressed from pET-32a in E. coli Origami B; thioredoxin tag and His tag removed by thrombin cleavage; monomer peak of size exclusion chromatography used; also called the mutant
With B1, in assay [7], the Kd is 14 µM.

As for SLSCRKEQGKMYDLYGFDCRSCASMCGKHPDLCAYFCEN (designed binder, The purified free form is m26) [human VEGF-binding peptide (2), phage-displayed], the binding result in assay [4] is “binds”.

As for SLSCRKEQGKMYLLKEWDCASCASACGNHPHYCAYFCEN (designed binder, also called α-EphA2 #2) [α-EphA2 TACI_d2 #2], the binding result in [2] and in assay [8] was “binds” in each case.

In the case of SLSCRKEQDKTYIEYGFDCRSCASGCGGHPLMCAYFCEN (designed binder) [human TNFα-binding peptide (2)], the binding result with Recombinant Human TNF-α was “binds”.

As for SLSCRKEQGKWYMTWESDCKSCASWCGSHPFDCAYFCEN (designed binder) [human VEGF-binding peptide (1)], the binding result in [4] is on record as “binds”.

SLSCRKEQGKSYGAIMYDCSSCASYCGEHPWHCAYFCEN (designed binder) [human EGFR-binding peptide (1)]: the binding result in assay [1] was “binds”.

Consider SLSCRKEQGKMYMVWTQDCKSCASWCGAHPVACAYFCEN (designed binder) [human VEGF-binding peptide (3)], for which the binding result in assay [4] was “binds”.
